In data set [1] the target is T1, unlabelled murine Amyloid beta 1-42 (Mus musculus, UniProt P12023).
T1 construct: unlabelled murine Amyloid beta 1-42 (rPeptide, USA; cat: A1008); purchased rPeptide, USA A1008; host or cells: synthetic peptide
Put plainly: Surface Plasmon Resonance specificity profiling of IgGs (BIAcore2000). In kind it is binding. To be noted: peptide 64-1024 nM. The procedure: (§1) Surface Plasmon Resonance was used to verify the specificity of the affinity-optimized IgGs for the human Amyloid beta 1-42 peptide. Briefly, the BIAcore2000 (GE Healthcare, UK) biosensor instrument was used to assess the kinetic parameters of the interaction between each test IgG and a range of small peptides including synthetically-produced human Amyloid beta 1-42 and human Amyloid beta 1-40. These experiments were performed essentially as described by Karlsson et al. (Karlsson et al., 1991).
(§2) The interaction between each test IgG and each peptide was estimated using assays in which the antibody was non-covalently captured by a protein G surface that was itself amine linked to a proprietary CM5 chip. The interaction between antibody and peptide was observed using a 5 application single cycle approach. The chip surface was regenerated between cycles by paired 40 second injections of 10 mM Glycine pH 2.0 to remove ligand and bound antibody. The test antibody was then reapplied for each peptide injection cycle.
(§3) Blank reference flow-cell data were subtracted from each IgG dataset and a zero-concentration antibody-only buffer blank was double-reference subtracted from the main dataset.
For orientation: In SPR one partner is held on a chip, and binding of the other changes the refractive index at the surface.

Data set [2] deals with T2, biotinylated human Amyloid beta 1-42 (Homo sapiens, UniProt P05067).
T2 construct: biotinylated human Amyloid beta 1-42 peptide (rpeptide, USA; cat: A1117); purchased rPeptide, USA A1117; host or cells: synthetic peptide
The description is as above. In kind it is binding. The settings on record: peptide 64-1024 nM. The procedure: as §1, §2, §3

The target in data set [3] is T3, biotinylated human Amyloid beta 1-40 (Homo sapiens, UniProt P05067).
T3 construct: biotinylated human Amyloid beta 1-40 (rPeptide, USA; cat: A1111); purchased rPeptide, USA A1111; host or cells: synthetic peptide
Described as above. In kind it is binding. The settings on record: peptide 64-1024 nM. Here is the method:
as §1, §2, §3

The target of data set [4] is T4, unlabelled murine Amyloid beta 1-40 (Mus musculus, UniProt P12023).
T4 construct: unlabelled murine Amyloid beta 1-40 (rPeptide, USA; cat: A1007); purchased rPeptide, USA A1007; host or cells: synthetic peptide
The description is as above. In kind it is binding. To be noted: peptide 64-1024 nM. The procedure: as §1, §2, §3

Data set [5] concerns the target T5, Amyloid beta 1-42 peptide (Rattus norvegicus, UniProt P08592).
T5 construct: Measurement of free Amyloid beta 1-42 peptide in rat CSF; from tissue; host or cells: CSF and brain homogenate of Sprague-Dawley rats
Kind of data set: Total Amyloid beta 1-42 peptide in rat brain homogenates (ELISA). Type of data set: in vivo. To be noted: Sprague-Dawley rats, 0.25-10 mg/kg weekly over 14 days. The procedure: Eight-week old male albino Harlan Sprague-Dawley rats (n=8-12) received a single dose of Abet0380-GL IgG1-TM antibody by intravenous injection with a dosing vehicle of 25 mM Histidine, 7% Sucrose, 0.02% p80 surfactant, pH 6.0 at 5 ml/kg. Dosing solutions were made just before dosing. Animals were anaesthetized at the time indicated and cerebrospinal fluid (CSF) was aspirated from the cistema magna. CSF samples were centrifuged for 10 minutes at approximately 3000× g at 4° C. within 20 minutes of sampling to remove cells or debris. Samples were then frozen on dry ice and stored at −70° C. for subsequent analysis.
Animals were sacrificed by decapitation, brain tissue was dissected and Amyloid beta peptides were extracted from brain tissue in diethylamine (DEA; Fluka. Sigma. UK; cat: 31729). Briefly, frozen brain tissue was homogenized in 0.2% DEA and 50 mM NaCl (Merck, USA: cat: 1.06404.1000). Brain homogenates were ultracentrifuged at 133,000×g, for 1 hour. Recovered supernatants were neutralized to pH 8.0 with 2 M Tris-HCl (TRIZMA®-hydrochloride; Sigma, UK; cat: 93363) and stored at −70° C. until analysis. Animal experimentations were performed in accordance with relevant guidelines and regulations provided by the Swedish Board of Agriculture. The ethical permission was provided by an ethical board specialized in animal experimentations: the Stockholm Södra Animal Research Ethical Board.
Measurement of total (free and Abet0380-GL bound) Amyloid beta 1-42 peptide in rat brain homogenates was performed using modifications of the mouse Amyloid beta (1-42) colorimetric ELISA kit (Invitrogen, UK: cat: KMB3441). […] To stop the reaction, 100 μl of Stop Solution was added to each well and the plate was read within 2 hours at an absorbance of 450 nm. […]
The ability of antibody Abet0144-GL to sequester amyloid beta 1-42 was investigated in a PK-PD study in normal rats. […] Free and total amyloid beta 1-42 levels were measured using assays described above.

The next data set deals with Amyloid plaques. Put plainly: In vitro immunohistochemistry on human Alzheimer's Disease brain sections. The source says:
Briefly, the lead antibodies were screened on human Alzheimer's Disease brain sections and Tg2576 mouse brain sections to identify anti-Amyloid beta 1-42 antibodies that bound to Amyloid plaques in vitro.
In these experiments, human brain tissue was isolated from the frontal cortex of two individuals with severe Alzheimer's Disease (ApoE genotype 3/3, Braak stage 6 and ApoE genotype 4/3, Braak stage 5). As a control, equivalent tissue was isolated from one non-dementia individual (ApoE genotype 3/3, Braak stage 1). Mouse brain tissue was isolated from Tg2576 mice at an age of 15 months (2 mice) and 22 months (2 mice). Antibodies were tested at concentrations of 2, 5, 10 and 20 ug ml^−1.

Where [6] appears, read: listed as Abet0380-GL (germlined) IgG1-TM.

T5 sequence (P08592 672-713 limits assumed): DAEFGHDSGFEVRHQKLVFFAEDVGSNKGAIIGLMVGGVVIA
T1 sequence (P12023 672-713): as the sequence (P08592 672-713 limits assumed) above
T2 sequence (P05067 672-713): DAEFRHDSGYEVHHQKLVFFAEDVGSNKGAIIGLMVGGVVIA
T3 sequence (P05067 672-711): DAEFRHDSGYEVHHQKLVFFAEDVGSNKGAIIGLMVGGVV
T4 sequence (P12023 672-711): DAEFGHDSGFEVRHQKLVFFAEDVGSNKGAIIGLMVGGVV

B1: Abet0380-GL IgG1-TM: germlined Abet0380; VH SEQ ID NO: 524, VL SEQ ID NO: 533; human IgG1 triple mutant format (antibody, listed as Homo sapiens, V domains shown)
VH: EVQLLESGGGLVQPGGSLRLSCAASMGNFNYQTMWWVRQAPGKGLEWVSVIGKTNENIAYADSVKGRFTISRDNSKNTLYLQMNSLRAEDTAVYYCAREWMDHSRPYYYYGMDVWGQGTLVTVSS
VL: SYELTQPPSVSVSPGQTASITCSGHNLEDKFASWYQQKPGQSPVLVIYRDDKRPSGIPERFSASNSGHTATLTISGTQAMDEADYYCSSQDTVTRVFGGGTKLTVL
modifications: human IgG1 triple mutant constant region; /note=“Abet0380-GL”
notes: germlined Abet0380; human IgG1 triple mutant format
B1: the “binding of unlabelled murine Amyloid beta 1-42 peptide to immobilized antibody” value was “clear binding” in data set [1] and “strong binding” in data set [1] (setting [6]). Further, the “binding of biotinylated human Amyloid beta 1-42 peptide to immobilized antibody” value was “clear binding” in data set [2] and “strong binding” in data set [2] (setting [6]). Besides, the “binding of biotinylated human Amyloid beta 1-40 peptide to immobilized antibody” value in data set [3] is recorded as “no discernable binding”; in data set [3] (setting [6]), “no binding”. For the same molecule, the entries for the “binding of unlabelled murine Amyloid beta 1-40 peptide to immobilized antibody” value in data set [4] and in data set [4] (setting [6]) were “no discernable binding” and “no binding”, respectively. The “effect on total Amyloid beta 1-42 peptide in brain tissue” value in data set [5] is reported as “dose-dependent increase”. The molecule further had a plaque recognition score in the data set with Amyloid plaques (human AD brain section, ApoE genotype 3/3, Braak stage 6, 10 μg/ml) of 3. In the data set with Amyloid plaques (human AD brain sections), the “core plaques (CP) staining score” value was 3. The “staining of diffuse plaques (DP) and cerebral amyloid angiopathy (CAA) plaques” value in the data set with Amyloid plaques (relative to core plaques, Tg2576 and human AD brain sections) is on record as “to a lesser extent”.

Source of the values: US20190262327A1, “COMBINATION OF A BACE INHIBITOR AND AN ANTIBODY OR ANTIGEN-BINDING FRAGMENT FOR THE TREATMENT OF A DISORDER ASSOCIATED WITH THE ACCUMULATION OF AMYLOID BETA” (ASTRAZENECA AB, priority 2016, published 2019).
